Measured values reported in patent US8895303B2, “Method of cell culture and method of treatment comprising a vEPO protein variant” (Charite-Universitatsmedizin Berlin, priority 2006, dated 2014).

B1: mS: murine EPO splice variant, peptide sequence SEQ ID NO 14 (protein, listed as Mus musculus)
chain: MGVPERPTLLLLLSLLLIPLGLPVLCAPPRLICDSRVLERYILEAKEAENVTMGCAEGPRLSENITVPDTKVNFYAWKRMEKELMSPPDTTPPAPLRTLTVDTFCKLFRVYANFLRGKLKLYTGEVCRRGDR
B2: mG3: murine EPO variant, peptide sequence SEQ ID NO 16 (protein, listed as Mus musculus)
chain: MGVPERPTLLLLLSLLLIPLGLPVLCAPPRLICDSRVLERYILEAKEAENVTMGCAEGPRLSENITVPDTKVNFYAWKRMEVEEQAIEVWQGLSLLSEAILQAQALLANFLRGKLKLYTGEVCRRGDR
B3: mEPO: wild type mouse erythropoietin expressed in HEK cells (protein, listed as Mus musculus)
chain: MGVPERPTLLLLLSLLLIPLGLPVLCAPPRLICDSRVLERYILEAKEAENVTMGCAEGPRLSENITVPDTKVNFYAWKRMEVEEQAIEVWQGLSLLSEAILQAQALLANSSQPPETLQLHIDKAISGLRSLTSLLRVLGAQKELMSPPDTTPPAPLRTLTVDTFCKLFRVYANFLRGKLKLYTGEVCRRGDR

Assays:
bone marrow cells = test: Erythroid colony formation assay (CFU-E); type: cell-based, mouse; conditions: 150 U/l mEPO or rhEPO, comparable protein concentrations of variants; no additional cytokines; counted at DIV2
Method: Bone marrow cells were harvested from tibia and femur of male […] mice (8-11 weeks) and resuspended in α-medium (supplemented with 10% fetal calf serum GOLD, 1% penicillium/streptavidine and 1% L-glutamine). Cells were seeded in […] Petri dishes (225.000 cells/dish) containing 8 parts Metho Cult SF 3236 methyl cellulose (StemCell Technologie Inc), 1 part cells and 2 parts a-medium mixed with HEK-cell preconditioned medium containing the EPO derivates (150 U/l in the case of murine EPO). 150 U/l of rhEPO (Roche) was used as positive control. Plates were incubated at 37° C. in a humidified atmosphere containing 5% CO2 for 48 hours. For evaluation only reddish colonies containing at least 6 hemoglobinised cells were taken into account.
Metho Cult SF 3236 triggers the formation of colonies (CFU-M, CFU-G or CFU-E) only after addition of the appropriate cytokines. […] The small irregular reddish colonies disappear by day 3.
In this assay, the hematopoietic potential of the variants was tested and compared to wild type form of EPO as well as rhEPO. The following conditions were prepared for comparison: medium from HEK cells transfected with pZ/EG as negative control, medium from HEK cells transfected with pZ/EG cells plus 150U/l rhEPO (Roche) as a positive control, and medium from HEK cells transfected with either pZ/EG-EPO-IRES (150 U/l murine EPO), pZ/EG-Splice-IRES (variant S; mS) or pZ/EG-G3-IRES (variant G3; mG3). At DIV2 only reddish colonies were counted containing at least 6 hemoglobinised cells. The results of three independent experiments are depicted in FIG. 5.

[1] = system: rat primary cortical neurons; test: Oxygen glucose deprivation (OGD) neuroprotection assay, LDH release; type: cell-based; conditions: for neuroprotection (reduction in LDH release): OGD 3 h 15 min (higher level of damage)
Method: Rat primary neuronal cultures were obtained from E16 to early E19 embryos of Wistar rats (Bundesinstitut für gesundheitlichen Verbraucherschutz and Veterinärmedizin, Berlin, Germany). Cre-expressing mouse neurons were obtained from E16 embryos of heterozygous transgenic mice expressing Cre-recombinase under the control of the tubulin α-1 promoter (provided by Dr. U. Schweitzer; Experimental Endocrinology, Charité). Murine and rat cultures were prepared according to a modified protocol from Brewer (1995) J Neurosci Res. 42: 674-83. Cerebral cortex was isolated after removal of meninges and rinsed twice in PBS (Biochrom, Berlin, Germany). After 15 min incubation in trypsin/EDTA (0.05/0.02% w/v in PBS) at 37° C., tissues were rinsed twice in N-Med (modified Eagle's medium from Gibco with 10% fetal calf serum, 100 U penicillin plus streptomycin from Biochrom, 2 mM L-glutamine, 100 IE insulin/I, 10 mM HEPES and 44 mM glucose) and dissociated carefully in a small volume of N-Med using a Pasteur pipette. […]
For OGD, the culture medium was washed out by rinsing once with PBS. […] After 24 h, lactate dehydrogenase (LDH) activity was measured in the supernatants as an indicator of cell death.
For LDH measurement 25 μl of medium was mixed with 100 μl fresh β-NADH solution (0.15 mg/ml in 1×LDH-buffer; Sigma, reduced form) in a 96 wells plate (Greiner). 25 μl of 22.7 mM pyruvate (Sigma) was added immediately before placing the plate into the Reader (Thermo Labsystems; MRX^TC Revelation). […] LDH-concentration was calculated proportionally to the LDH-standard (Greiner, system calibrator). […]
For pretreatment with rhEPO, wild type mEPO, wild type hEPO or EPO variants the medium was removed to an end volume of 200 μl and filled up with 200 μl fresh NBM+B27 containing equimolar amounts (corresponding to 200 U/l rhEpo) of EPO or EPO variants, respectively. […] Cell death was assessed 24 h after OGD by measurement of LDH release. […]

Molecule	hematopoietic potential (formation of CFU-E) (bone marrow cells)	neuroprotection (reduction in LDH release) [1] [%]	protection rate (reduction in LDH release) ([1]; OGD 1 h 40 min and 1 h 50 min)
B1	lacked hematopoietic potential	~60	–
B2	lacked hematopoietic potential	~60	–
B3	formation of cfu-e	–	no protection
